Molecular target: Pre-cleaved FUS (tag-free Fused in sarcoma) (UniProt P35637)
Assay: fluorescence correlation spectroscopy

Sequence of UniProt P35637 (P35637 whole entry, the tested form may be a part): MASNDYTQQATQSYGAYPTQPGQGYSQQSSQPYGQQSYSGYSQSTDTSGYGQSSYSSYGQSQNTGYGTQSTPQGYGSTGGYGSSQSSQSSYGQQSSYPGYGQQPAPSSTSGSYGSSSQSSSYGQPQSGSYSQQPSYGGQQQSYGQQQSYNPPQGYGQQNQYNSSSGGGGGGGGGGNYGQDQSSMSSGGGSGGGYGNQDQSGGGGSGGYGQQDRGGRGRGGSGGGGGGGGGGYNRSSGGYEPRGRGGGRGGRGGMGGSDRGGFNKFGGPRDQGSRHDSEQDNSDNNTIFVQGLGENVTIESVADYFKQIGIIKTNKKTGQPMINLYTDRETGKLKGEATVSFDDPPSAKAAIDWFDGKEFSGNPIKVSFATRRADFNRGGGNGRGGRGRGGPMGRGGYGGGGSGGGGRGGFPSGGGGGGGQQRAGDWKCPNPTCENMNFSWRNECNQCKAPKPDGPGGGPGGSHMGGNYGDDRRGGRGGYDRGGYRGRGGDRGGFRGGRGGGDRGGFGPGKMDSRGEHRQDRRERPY

Q: Which second critical concentration (condensate formation) does the source give for “Cy3-labeled pre-cleaved FUS (from UniProt P35637 1-526) (natural protein)” here?
A: The second critical concentration (condensate formation) was 1 µM.
